Test results taken from publication PMC6362314, “Both a Unique Motif at the C Terminus and an N-Terminal HEAT Repeat Contribute to G-Quadruplex Binding and Origin Regulation by the Rif1 Protein” (Molecular and Cellular Biology, 2018).

Target: the molecule itself
Assay: native gel or EMSA; purified Rif1 C-terminal polypeptides on a native protein gel (5% to 20% gradient gel), CBB staining; self-association

Protein	stoichiometry N [subunits]
Rif1 C-terminal 272-aa polypeptide (aa 1129 to 1400), wild type (domain or fragment, S. pombe, UniProt Q96UP3 1129-1400, looked up, Rif1, fission yeast (S. pombe), 1,400 amino acids; C-terminal polypeptides were also made in 293T cells (N-terminal His6, C-terminal Flag3); also called Rif1(aa1129-1400); C-terminal polypeptide; source: E. coli, purified (nickel column, Mono Q column if necessary)) KIDETKNEATDMEESLTTPSGKVNKEVIVDDTSLRDEAIVPDKAIDVADNSNALLKENISSQSNRKADNNGTPSVNNSFTTANNDECSKENSQIEPEGQTASREGVLSTPRSTRKKRKLGRKSQSSNVNKEVAISEVSATLENVEVIERHGISEQGQNLDESACVLTNESSLSQTEIPEEKTENETTAVNGFENSKKRQFSSLLSGSIDTNNESNKVSSVEFDKSGPQDIIQSMTEATFEIEKNIQDLKSEEVQKLSDLLMRLQRAILSRIA	≤ 16
Rif1 C-terminal 91-aa polypeptide (aa 1310 to 1400) (domain or fragment, S. pombe, UniProt Q96UP3 1310-1400, looked up, Rif1, fission yeast (S. pombe), 1,400 amino acids; residues 1310-1400; also called C-terminal 91 amino acids; source: E. coli, purified (nickel column, Mono Q column if necessary)) TENETTAVNGFENSKKRQFSSLLSGSIDTNNESNKVSSVEFDKSGPQDIIQSMTEATFEIEKNIQDLKSEEVQKLSDLLMRLQRAILSRIA	≤ 16
Rif1 C-terminal 229-aa polypeptide (aa 1172 to 1400) (domain or fragment, S. pombe, UniProt Q96UP3 1172-1400, looked up, Rif1, fission yeast (S. pombe), 1,400 amino acids; residues 1172-1400; source: E. coli, purified (nickel column, Mono Q column if necessary)) AIDVADNSNALLKENISSQSNRKADNNGTPSVNNSFTTANNDECSKENSQIEPEGQTASREGVLSTPRSTRKKRKLGRKSQSSNVNKEVAISEVSATLENVEVIERHGISEQGQNLDESACVLTNESSLSQTEIPEEKTENETTAVNGFENSKKRQFSSLLSGSIDTNNESNKVSSVEFDKSGPQDIIQSMTEATFEIEKNIQDLKSEEVQKLSDLLMRLQRAILSRIA	≤ 16
Rif1 C-terminal 148-aa polypeptide (aa 1253 to 1400) (domain or fragment, S. pombe, UniProt Q96UP3 1253-1400, looked up, Rif1, fission yeast (S. pombe), 1,400 amino acids; residues 1253-1400; source: E. coli, purified (nickel column, Mono Q column if necessary)) SSNVNKEVAISEVSATLENVEVIERHGISEQGQNLDESACVLTNESSLSQTEIPEEKTENETTAVNGFENSKKRQFSSLLSGSIDTNNESNKVSSVEFDKSGPQDIIQSMTEATFEIEKNIQDLKSEEVQKLSDLLMRLQRAILSRIA	≤ 16
